In PMC4089490, “Structures of the NLRP14 pyrin domain reveal a conformational switch mechanism regulating its molecular interactions” (Acta Crystallographica Section D: Biological Crystallography, 2014):

Legend:
[1] = target: the molecule itself; test: SEC; analytical Superdex 75 10/300, 20 mM Tris pH 8.0, 150 mM NaCl, 5 mM TCEP; 700 µl at 1 mg/ml injected; monomer:dimer ratio from peak areas
[2] = target: Q86W24; test: as above

B1: NLRP14 PYD (wild-type NLRP14 pyrin domain, residues Met1-Gln100) (domain or fragment, human, UniProt Q86W24 1-100, looked up)
chain: MADSSSSSFFPDFGLLLYLEELNKEELNTFKLFLKETMEPEHGLTPWNEVKKARREDLANLMKKYYPGEKAWSVSLKIFGKMNLKDLCERAKEEINWSAQ
notes: NLRP14 pyrin domain, human, residues Met1-Gln100, amplified from human NLRP14 cDNA GenBank NM_176822.3; The crystal structure (PDB 4n1j) was solved from selenomethionine-labelled protein expressed in SeMet minimal medium and purified identically; SEC used the native protein; also called wild-type NLRP14 PYD; wild-type PYD; source: E. coli BL21 Star (DE3), purified (Ni-NTA, eluted by thrombin …)
stoichiometry N [1]: 2 | dimer fraction (SEC peak area) [2]: dimeric (17%)

B2: NLRP14 PYD D86V (protein)
chain: MADSSSSSFFPDFGLLLYLEELNKEELNTFKLFLKETMEPEHGLTPWNEVKKARREDLANLMKKYYPGEKAWSVSLKIFGKMNLKVLCERAKEEINWSAQ
dimer fraction (SEC peak area) [2]: 12.13 ml, 24%
